{"source": "patent US20130210108", "target": "malate dehydrogenase (MDH)"}
{"protein": "PA3529 protein (2-Cys peroxiredoxin of Pseudomonas aeruginosa PAO1), His-tagged, non-irradiated or gamma/UV-irradiated (protein) MSVLVGKKAPDFNVAAVLGNGEIVESFTLSEAIKGKYGLVFFYPLDFTFVCPSELIALDHRIPEFQARNVEVIGVSIDSHFTHNAWRNTPVDKGGIGAVKYTLAADTKHEIAKAYDVESDGGVAFRGAFLIDKEGVVRSQIVNDLPLGRNMDELLRLVDALQFHEEHGEVCPANWKKGDKGMTASPEGVAKYLAENASKL", "values": [{"measurement": "MDH aggregation at 43 C for 15 minutes, PaPrx:MDH 1:1 (molecular chaperone activity after UV irradiation)", "result": "as the UV irradiation time increased, the molecular chaperone activity increased regularly"}, {"measurement": "chaperone activity against the non-irradiated group", "result": "Chaperone activity of Prx protein was three-fold increased by gamma irradiation at 15˜30 kGy, compared with the non-irradiated group"}, {"measurement": "increase rate of OD650nm of MDH heated at 43 C (holdase chaperone activity)", "result": "the lowest OD was observed at 30 kGy, indicating that chaperone activity was highest at 30 kGy"}]}
{"protein": "PP1084 protein (3-Cys peroxiredoxin of Pseudomonas putida KT2440), His-tagged, non-irradiated or gamma-irradiated (protein) MSVLVGKKAPDFTVPAVLGNGEIVDSFNLASAIKGKYGLVFFYPLDFTFVCPSELIALDNRIPDFQARNVEVIGVSIDSHFTHNAWRNTPVNNGGIGQVKYTLAADMTHEICKAYDVESEGGVAFRGAFLIDTNGVVRSQIVNDLPLGRNMDELLRLVDALQFHEEHGEVCPANWKKGDKGMNASPEGVAAYLSENAGKL", "values": [{"measurement": "chaperone activity against the non-irradiated group", "result": "Chaperone activity of Prx protein was three-fold increased by gamma irradiation at 15˜30 kGy, compared with the non-irradiated group"}, {"measurement": "increase rate of OD650nm of MDH heated at 43 C (holdase chaperone activity)", "result": "the lowest OD was observed at 30 kGy, indicating that chaperone activity was highest at 30 kGy"}]}
